Laboratory results published in US20110135639A1 (Human Genome Sciences, published 2011).

Columns and labels:
[1] = target: T1, membrane-bound form of Neutrokine-alpha (human, UniProt Q9Y275 1-285); assay: binding to THP-1 cells
T1 construct: also called Neutrokine-alpha on the surface of THP-1 cells; cell surface Neutrokine-alpha

[2] = target: T2, soluble form of Neutrokine-alpha (amino acids 134 to 285 of SEQ ID NO:2) (human, UniProt Q9Y275 134-285); assay: capture of Neutrokine-alpha from solution
T2 construct: also called rNeutrokine-alpha; BLyS
T2 sequence (Q9Y275 134-285): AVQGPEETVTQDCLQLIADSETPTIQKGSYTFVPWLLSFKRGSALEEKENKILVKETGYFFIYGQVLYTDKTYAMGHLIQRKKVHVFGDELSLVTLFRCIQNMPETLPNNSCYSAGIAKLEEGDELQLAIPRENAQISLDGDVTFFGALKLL

[3] = target: T3, peptide comprising amino acid residues Val-227 to Asn-242 of SEQ ID NO:2 (human); assay: epitope mapping with peptide
T3 peptide: VTLFRCIQNMPETLPN

Measured: binding result

T1 sequence (Q9Y275 whole entry): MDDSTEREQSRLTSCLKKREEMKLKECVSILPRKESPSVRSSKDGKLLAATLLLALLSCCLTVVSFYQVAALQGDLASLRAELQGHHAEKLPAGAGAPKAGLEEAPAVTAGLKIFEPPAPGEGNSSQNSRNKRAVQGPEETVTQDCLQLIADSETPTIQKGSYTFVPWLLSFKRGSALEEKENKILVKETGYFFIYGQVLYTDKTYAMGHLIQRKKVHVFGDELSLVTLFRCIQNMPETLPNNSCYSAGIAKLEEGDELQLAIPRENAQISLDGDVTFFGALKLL

B1: murine monoclonal antibody 15C10 (antibody, V domains shown)
VH: QVQLQQSGAELARPGASVKMSCRASGYTFTTYTMHWVKQRPGQGLEWIGYIIPRNTYTTFNQKFKNKATLTADKSSNTAYMQLSSLTSEDSAVYYCARHYGGGYWFFDVWGAGTTVTVSS
VL: ELVMTQTPASLAVSLGQRATISCRGSESVDSYGNSFMHWYQQKPGQPPKLLIYRASNLESGIPARFSGSGSRTDFTLTIYPVEADDVATYYCQQSNDDPMYTFGGGTKLEIKR
notes: A chimeric form with human IgG1 and kappa constant regions also exists (PTA-3794); also called hybridoma ATCC PTA-1158
binds: all assays above
